Measurements taken from publication PMC6497274, “Isolation of nanobodies against Xenopus embryonic antigens using immune and non-immune phage display libraries” (PLoS ONE, 2019).

B1: NbG12 (VHH)
VHH: VQLQASGGGLVQAGSSRRLYCAFSGDTFNGRPMGWFRQAPGKEREFVATISASGGRTYYAGSVLGRFTISRDNTRNTVSLQMNNLTPEDTAVYYCAAKRPTALSDNYDYKTENEYNYWGQGTQVTVS
notes: nanobody from the immune llama library; Nucleus-staining nanobody; source: bacterial periplasm (pecan126 phagemid clone), purified (His60-Ni-Superflow resin)
B2: NbG6 (VHH)
VHH: DVQLQASGGGLVQPGASLRLSCVSTRNTFSIDPMSWYRRAPGKGLEWVSGISNRGGSTSYADSVKGRFTISRDNIKSTLYLQMNSLKPEDTAVYYCNADASRWGSWGQGTQVTVSS
notes: nanobody from the semi-synthetic non-immune llama library Nomad#1; His6-tagged alkaline phosphatase fusion from pecan16; source: E. coli BL21Star periplasm (pecan16), purified (IMAC)
B3: NbN39 (VHH)
VHH: VQLQASGGGLVQAGGSLRLSCTFSGGTFNGRNMGWFRQAPGKEREFAATISASGGRTYYAESVLGRFTISRDNARNTVYLQMNNLTPEDTAVYFCAAKRPTRLSENYDYKTENDYDYWGQGTQVTVS
notes: nanobody from the immune llama library; Nucleus-staining nanobody; used as negative control in the Ndel1 ELISA; source: bacterial periplasm (pecan126 phagemid clone), purified (IMAC)
B4: NbE9 (VHH)
VHH: QVKLQESGGGSVQHGGSLRLSCVASGLSFSNHWMYWVRQAQGKGLEWVSSINPSGSFTSYTDSAKGRFTISKANDGHTVYLQMNNLKPEDTGVYYCGLGSWSELEYSYSYWGRGTQVTVSS
notes: nanobody from the semi-synthetic non-immune llama library Nomad#1; His6-tagged alkaline phosphatase fusion from pecan16; also called AP-NbE9; 6His-AP-NbE9; source: E. coli BL21Star periplasm (pecan16), purified (IMAC); not shown: alkaline phosphatase, C-terminal, kept
B5: NbE7 (VHH)
VHH: KVQLQASGGGLVQPGGSLQLSCVASGLSFSNYWMYWVRQAQGKGLEWVSSINPSGSFTSYTDSAKGRFTISKANDGHTVYLQMNNLKPEDTGVYYCGLGSWSELEYSYSYWGRGTQVTVSS
notes: nanobody from the semi-synthetic non-immune llama library Nomad#1; His6-tagged alkaline phosphatase fusion from pecan16; also called AP-NbE7; source: E. coli BL21Star periplasm (pecan16), purified (IMAC); not shown: alkaline phosphatase, C-terminal, kept
B6: NbH3 (VHH)
VHH: EVKLQESGGGLAQSGGSLRLSCAPQLGAHTIVAMGWYRQPPDSQREFVAMLFANGITRYNEAVKGRFTISRDDAKNTMYLQMNNLKPEDTAVYYCKIYDHSIMTDYWGQGTQVTVSS
notes: as for B2
B7: NbE2 (VHH)
VHH: QVKLQQSGGGSVQVGGSLRLSCTASGSAFIINTMSWYRRAPGKQRELVATITRRGTTNYADSVKGRFTISRDNAENTVDLHMNSLKPEDTAVYYCKGYRADWMTDYWGQGTQVTVSS
notes: as for B2

Columns and labels:
Npm2 (nucleoplasmin) [1] = molecular target: T1, Npm2 (nucleoplasmin) (Xenopus laevis, UniProt P05221); assay: affinity purification with mass spectrometry; purified His-tagged nanobody incubated with Xenopus embryo lysate (1% Triton X100 lysis buffer), captured on His60 Ni Superflow resin overnight at 4°C, SDS-PAGE, SimplyBlue staining, 170 kDa band cut out for LC-MS/MS; conditions: one partner purified
T1 construct: predicted molecular weight 22 kDa, found as a 170 kDa band in SDS-PAGE; it was not measured here; also called 170 kDa band; source: endogenous, Xenopus laevis embryo lysate; copies: 10

BSA = molecular target: T2, BSA (Bos taurus, UniProt P02769); assay: ELISA; 96-well plate coated with 1 μg/ml Ndel1-MBP or BSA; purified nanobodies at 2 μg/ml in 2% skim milk in PBS/0.05% Tween-20, 4 h at room temperature; detected by anti-His-tag antibody; conditions: both partners purified
T2 construct: BSA (serum albumin), negative control coating in ELISA

Npm2 (nucleoplasmin) [2] = molecular target: T1, Npm2 (nucleoplasmin); assay: far-Western, overlay or dot blot; immunoblot: Xenopus embryo lysates of different stages on 10% SDS-PAGE, PVDF membrane probed overnight at 4°C with purified His-tagged nanobody (0.2-3 μg/ml), detected by anti-His6 antibody; conditions: one partner purified

T2 sequence (P02769 25-607): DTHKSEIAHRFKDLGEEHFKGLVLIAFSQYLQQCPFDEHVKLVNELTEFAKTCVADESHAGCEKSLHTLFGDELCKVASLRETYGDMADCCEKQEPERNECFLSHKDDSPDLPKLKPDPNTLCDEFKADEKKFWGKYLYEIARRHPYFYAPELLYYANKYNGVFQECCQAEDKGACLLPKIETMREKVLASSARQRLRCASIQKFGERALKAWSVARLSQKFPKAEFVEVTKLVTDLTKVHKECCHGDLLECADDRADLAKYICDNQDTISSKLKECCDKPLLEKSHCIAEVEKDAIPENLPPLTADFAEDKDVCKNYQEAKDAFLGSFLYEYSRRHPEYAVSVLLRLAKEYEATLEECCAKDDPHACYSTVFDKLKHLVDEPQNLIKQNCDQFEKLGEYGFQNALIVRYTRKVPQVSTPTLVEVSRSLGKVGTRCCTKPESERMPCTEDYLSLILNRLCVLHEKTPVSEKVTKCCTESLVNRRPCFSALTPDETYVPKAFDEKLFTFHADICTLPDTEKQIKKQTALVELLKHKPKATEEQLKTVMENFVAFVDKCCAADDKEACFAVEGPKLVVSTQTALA
T1 sequence (P05221 whole entry): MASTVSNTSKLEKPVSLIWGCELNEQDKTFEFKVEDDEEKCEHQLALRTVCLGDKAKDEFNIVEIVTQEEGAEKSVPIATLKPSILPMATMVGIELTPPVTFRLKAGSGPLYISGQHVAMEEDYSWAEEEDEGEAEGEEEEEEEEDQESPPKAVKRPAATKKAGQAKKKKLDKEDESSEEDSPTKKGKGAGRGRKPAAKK

Row | Binder | binding result (BSA) | further results
1 | B1 | – | binding result (Npm2 (nucleoplasmin) [1]): binds
2 | B2 | no binding (tested: 2 μg/ml) | –
3 | B3 | – | binding result (Npm2 (nucleoplasmin) [2]): binds
4 | B4 | no binding (tested: 2 μg/ml) | –
5 | B5 | no binding (tested: 2 μg/ml) | –
6 | B6 | no binding (tested: 2 μg/ml) | –
7 | B7 | no binding (tested: 2 μg/ml) | –
